Assays:
[1] = target: MUC1 on MUC1+ human cancer cell lines and tumor tissue (abnormal, e.g. hypoglycosylated, tumor MUC1) (human) (UniProt P15941); test: flow cytometry, HPAF cells
[2] = target: MUC1 on MUC1+ human cancer cell lines and tumor tissue (abnormal, e.g. hypoglycosylated, tumor MUC1) (human) (UniProt P15941); test: flow cytometry, MCF-7 cells
[3] = target: MUC1 on MUC1+ human cancer cell lines and tumor tissue (abnormal, e.g. hypoglycosylated, tumor MUC1) (human) (UniProt P15941); test: flow cytometry, BT20 cells
[4] = target: MUC1 on MUC1+ human cancer cell lines and tumor tissue (abnormal, e.g. hypoglycosylated, tumor MUC1) (human) (UniProt P15941); test: flow cytometry, MS+MUC1 cells
[5] = target: MUC1 on MUC1+ human cancer cell lines and tumor tissue (abnormal, e.g. hypoglycosylated, tumor MUC1) (human) (UniProt P15941); test: flow cytometry, SKBR-3 cells
[6] = target: MUC1 on MUC1+ human cancer cell lines and tumor tissue (abnormal, e.g. hypoglycosylated, tumor MUC1) (human) (UniProt P15941); test: flow cytometry, PANC-1 cells
[7] = target: MUC1 on MUC1+ human cancer cell lines and tumor tissue (abnormal, e.g. hypoglycosylated, tumor MUC1) (human) (UniProt P15941); test: immunohistochemistry, colon tissue microarray
[8] = target: MUC1 on MUC1+ human cancer cell lines and tumor tissue (abnormal, e.g. hypoglycosylated, tumor MUC1) (human) (UniProt P15941); test: immunohistochemistry, colon tissue microarray, benign samples
[9] = target: MUC1 on MUC1+ human cancer cell lines and tumor tissue (abnormal, e.g. hypoglycosylated, tumor MUC1) (human) (UniProt P15941); test: immunohistochemistry, colon tissue microarray, malignant samples
[10] = target: MUC1 on MUC1+ human cancer cell lines and tumor tissue (abnormal, e.g. hypoglycosylated, tumor MUC1) (human) (UniProt P15941); test: flow cytometry, SKBR-3 cells, secondary antibody only
[11] = target: MUC1 on MUC1+ human cancer cell lines and tumor tissue (abnormal, e.g. hypoglycosylated, tumor MUC1) (human) (UniProt P15941); test: flow cytometry, PANC-1 cells, secondary antibody only
[12] = target: MUC1 on MUC1+ human cancer cell lines and tumor tissue (abnormal, e.g. hypoglycosylated, tumor MUC1) (human) (UniProt P15941); test: flow cytometry, MS+MUC1 cells, secondary antibody only
[13] = target: MUC1 on MUC1+ human cancer cell lines and tumor tissue (abnormal, e.g. hypoglycosylated, tumor MUC1) (human) (UniProt P15941); test: flow cytometry, BT20 cells, secondary antibody only
[14] = target: MUC1 on MUC1+ human cancer cell lines and tumor tissue (abnormal, e.g. hypoglycosylated, tumor MUC1) (human) (UniProt P15941); test: flow cytometry, MCF-7 cells, secondary antibody only
[15] = target: MUC1 on MUC1+ human cancer cell lines and tumor tissue (abnormal, e.g. hypoglycosylated, tumor MUC1) (human) (UniProt P15941); test: flow cytometry, HPAF cells, secondary antibody only

Substance	percentage of APC+ stained cells [1] [%]	percentage of APC+ stained cells [2] [%]	percentage of APC+ stained cells [3] [%]	percentage of APC+ stained cells [4] [%]	percentage of APC+ stained cells [5] [%]	percentage of APC+ stained cells [6] [%]	samples MUC1+ by staining (of 6 benign samples) [7]	samples MUC1+ by staining (of 138 malignant samples) [7]	MUC1+ samples stained (of 3 MUC1+ benign samples) [8]	MUC1+ samples stained (of 114 MUC1+ malignant samples) [9]	percentage of APC+ stained cells [10] [%]	percentage of APC+ stained cells [11] [%]	percentage of APC+ stained cells [12] [%]	percentage of APC+ stained cells [13] [%]	percentage of APC+ stained cells [14] [%]	percentage of APC+ stained cells [15] [%]
VU-3C6 (Abcam), mouse anti-MUC1 antibody	98.4	98.7	92.3	99.4	99.9	98.8										
HMPV (BD Biosciences), mouse anti-MUC1 antibody							3	114	3	114						
Hu-2nd. (APC-labeled secondary antibody only control for the human antibodies)											0.96	2.01	0.55	1.17	1.73	1.02
VU-4H5 (Abnova), mouse anti-MUC1 antibody	6.99	27.8	32.9	24.6	24.1	54.3			2	49						
M-2nd. (APC-labeled secondary antibody only control for the mouse antibodies)											1.67	3.45	0.46	1.74	1.39	0.77
